Laboratory results reported in patent US20250353926A1.

Biological target: PSMA expressed on target cells (PC3pip cells, high density; 22Rv1 cells, low density) (UniProt Q04609)
Test: cell-based or functional assay

Sequence of PSMA expressed on target cells (PC3pip cells, high density; 22Rv1 cells, low density) (Q04609 whole entry): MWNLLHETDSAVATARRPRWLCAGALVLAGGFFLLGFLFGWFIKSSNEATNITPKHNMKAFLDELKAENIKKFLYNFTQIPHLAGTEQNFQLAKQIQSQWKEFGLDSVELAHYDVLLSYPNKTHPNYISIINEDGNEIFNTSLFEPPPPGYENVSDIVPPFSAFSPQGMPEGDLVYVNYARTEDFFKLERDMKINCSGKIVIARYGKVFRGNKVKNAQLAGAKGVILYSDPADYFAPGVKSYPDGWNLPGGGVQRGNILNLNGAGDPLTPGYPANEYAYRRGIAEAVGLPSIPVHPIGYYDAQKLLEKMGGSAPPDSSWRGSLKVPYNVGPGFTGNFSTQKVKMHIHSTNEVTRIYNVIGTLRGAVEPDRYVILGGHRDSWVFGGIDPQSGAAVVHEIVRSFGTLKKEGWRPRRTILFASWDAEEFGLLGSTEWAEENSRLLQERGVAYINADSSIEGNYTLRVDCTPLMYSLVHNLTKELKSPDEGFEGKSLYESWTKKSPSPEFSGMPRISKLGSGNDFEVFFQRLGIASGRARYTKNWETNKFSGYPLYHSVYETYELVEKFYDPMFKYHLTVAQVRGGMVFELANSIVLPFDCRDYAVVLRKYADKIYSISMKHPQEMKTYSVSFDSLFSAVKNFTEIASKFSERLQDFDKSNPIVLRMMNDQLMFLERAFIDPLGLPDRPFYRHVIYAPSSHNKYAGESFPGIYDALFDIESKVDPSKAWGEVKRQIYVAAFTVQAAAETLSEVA

EC50; ADCC luciferase reporter assay (Jurkat CD16a V158 reporter cells), PC3pip 24 h continuous: 0.16 nM | EC50; ADCC reporter assay, 22Rv1 4 h washout, 24 h endpoint: > 500 nM | EC50; ADCC reporter assay, PC3pip 4 h washout, 24 h endpoint: 0.044 nM
Substance: monoclonal anti-PSMA antibody, J591
